Key:
[1] = molecular target: T1, MHCII (I-A^b) of murine bone marrow-derived dendritic cells (Mus musculus, UniProt P14434+P14483); assay: MHCII peptidomics of BMDCs exposed to live Listeria (iTRAQ LC-MS/MS of MHCII-associated peptides); format: cell-based; conditions: for logFC (Log2 Fold Change Listeria 6 hr versus 10 min): MHCII-bound peptide abundance, BMDCs, 6 hr versus 10 min after Listeria exposure; for Peptidomics Hit: Listeria peptide found by MHCII peptidomics that matches the BOTA prediction
T1 construct: immunoprecipitation of mature peptide-MHCII complexes with monoclonal Y3P antibody; endogenous in cells; host or cells: primary BMDCs from C57/BL6 (WT) mice, exposed to live L. monocytogenes EGDe
T1 sequence (P14434 24-256): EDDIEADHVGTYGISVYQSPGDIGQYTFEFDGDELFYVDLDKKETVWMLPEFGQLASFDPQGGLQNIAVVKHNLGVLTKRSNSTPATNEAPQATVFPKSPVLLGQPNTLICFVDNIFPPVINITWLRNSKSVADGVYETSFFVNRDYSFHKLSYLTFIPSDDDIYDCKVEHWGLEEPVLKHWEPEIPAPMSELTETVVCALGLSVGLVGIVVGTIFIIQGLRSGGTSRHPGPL
T1 sequence (P14483 28-265): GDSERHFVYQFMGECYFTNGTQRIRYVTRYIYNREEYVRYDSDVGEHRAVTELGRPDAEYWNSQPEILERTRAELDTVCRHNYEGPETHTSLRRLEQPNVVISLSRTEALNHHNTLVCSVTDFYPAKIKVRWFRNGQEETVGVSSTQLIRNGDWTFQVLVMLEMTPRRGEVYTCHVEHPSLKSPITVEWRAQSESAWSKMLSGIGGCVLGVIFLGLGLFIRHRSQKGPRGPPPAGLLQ
Text: To validate BOTA, Applicants tested its performance in predicting MHCII-restricted epitopes from Listeria monocytogenes, one of the most common foodborne pathogens associated with a relatively high mortality rate (Scallan et al., 2011). Despite the epidemiological impact of listeriosis, the number of experimentally validated CD4 T cell epitopes encoded within the Listeria genome is limited. Thus, Applicants first sought to identify MHCII-associated peptides in BMDCs exposed to live Listeria by peptidomics. In these experiments, primary BMDCs were exposed to live L. monocytogenes for 10 minutes or 6 hours prior to immunoprecipitation of mature peptide-MHCII complexes with monoclonal Y3P antibody (Janeway et al., 1984). Associated peptides from biological replicates of the 10-minute and 6-hour timepoints were analyzed using mass spectrometry (LC-MS/MS) (FIGS. 9A and B).
Immuno-affinity purification of MHCII complexes. Bone marrow was harvested from C57/BL6 (WT), Atg16l1^f/f×CD11c-Cre (Conway et al., 2013b), and Atg5^f/f×CD11c-Cre (Conway et al., 2013a) mice. BMDCs were differentiated from bone marrow for seven days in antibiotic-free DMEM supplemented with 20% FBS and GM-CSF (2% conditioned TOPO medium). In parallel, L. monocytogenes strain EGDe (ATCC BA-679) was cultured overnight in BHI medium, washed in PBS, and cocultured with BMDCs at an MOI of approximately 100:1 for 30 minutes. Tissue culture dishes containing cocultures were washed in PBS and cultured for an additional 10 minutes or 6 hours in DC media containing gentamicin (30 μg/ml). BMDCs were then harvested by scraping, washed in PBS, and lysed in 1% NP-40, 4 mM MgCl2, 6 μg/ml DNaseI from bovine pancreas (Sigma Aldrich), and PBS pH 7.4 at 250×10^6 cells/4 ml lysis buffer/sample. Clarified lysates were subjected to immunoprecipitation overnight at 4° C. with gentle rotation. Immunoprecipitation was performed with NHS Mag Sepharose (GE Healthcare) covalently coupled to anti-H2-IA (clone Y3P (Janeway et al., 1984)). Each sample contained 130 μl packed beads and approximately 650 μg antibody. Beads were then washed twice in PBS containing 0.1% NP-40 and three times in PBS.
MHC-peptide elution and desalting. Peptides were eluted from MHC complexes and desalted on in-house-built Empore C18 StageTips (3M, 2315) as described previously (Rappsilber et al., 2007). Sample loading, washes, and elution were performed on a tabletop centrifuge at a maximum speed of 2,000-3,500×g. Briefly, StageTips were equilibrated with 2×100 μL washes of methanol, 2×50 μL washes of 50% acetonitrile/0.1% formic acid (FA), and 2×100 μL washes of 1% FA. In a tube, the dried beads from MHC-associated peptide IPs were thawed at 4° C., reconstituted in 50 μL 3% ACN/5% FA, and loaded onto StageTips. The beads were washed with 50 μL 1% FA, and peptides were further eluted using two rounds of 5-minute incubations in 10% acetic acid. The combined wash and elution volumes were combined and loaded onto StageTips. The tubes containing the IP beads were washed again with 50 μL 1% FA, and this volume was also loaded onto StageTips. Peptides were washed twice on the StageTip with 100 μL 1% FA. Peptides were eluted using a step gradient of 20 μL 20% ACN/0.1% FA, 20 μL 40% ACN/0.1% FA, and 20 μL 60% ACN/0.1% FA. Step elutions were combined and dried to completion.
iTRAQ 4-plex labeling for quantitative proteomics.

CD4 T cells = assay: IFNγ ELISPOT of splenocytes from Listeria-infected mice restimulated with synthetic peptides; format: in vivo, mouse; conditions: seven days after i.p. Listeria infection; splenocytes restimulated with 100 nM peptide
Text: FIG. 10—BOTA and MHCII peptidomics accurately predict immunodominance in vivo. […] At day 7, splenocytes were harvested and restimulated with the indicated peptides for quantification of the T cell response by IFNγ ELISPOT. Data represent the mean number of spots per 1×10^5 CD4 T cells±sd for n=6 mice.
Given that MHCII peptidomics and BOTA successfully identified Listeria peptides and features associated with efficient antigen presentation, Applicants sought to measure T cell responses to these epitopes in vivo. To quantify the CD4 T cell response directed to the top eight candidate Listeria epitopes, mice were sacrificed seven days after intraperitoneal (i.p.) infection with Listeria. T cells were restimulated in vitro with synthetic peptides, and IFN-γ responses were enumerated by ELISPOT. […] The remaining four epitopes elicited weaker responses near the limit of detection for ELISPOT (FIG. 10B).
Listeria infection and ELISPOT. L. monocytogenes strain EGDe (ATCC BA-679) was grown to log phase in BHI, washed in PBS, and used to inoculate mice by i.p. injection with a dose of 1×10^4 CFU/200 μl/mouse. Seven days after infection, spleens were harvested, red blood cells were lysed, and single cell suspensions were replated at 2.5×10^5/200 μl/well on 96-well ELISPOT plates (Millipore MAIPS4510) precoated with anti-IFNγ (BD Pharmingen 551881) at a concentration of 5 μg/ml in PBS. Peptides were added at a concentration of 100 nM to restimulate splenocytes overnight. After stimulation, plates were washed, blocked, and incubated with biotinylated anti-IFNγ (BD Pharmingen 551881) at a concentration of 2 μg/ml and streptavidin-AKP (BD Pharmingen 554065) at a dilution of 1:1000. After 60 minutes, plates were washed and developed with 3-amino-9-ethylcarbazole (AEC, Sigma-Aldrich, A6926). IFNγ-secreting cells were scanned and enumerated using an Immunospot Analyzer ELISpot reader (CTL). All samples were run in triplicate. The following peptides were synthesized by New England Peptide: lmo2185_293-312 […] (SEQ ID NO: 14986), lmo0202_189-204 […] (SEQ ID NO: 14981), lmo0135_150-169 […] (SEQ ID NO: 14997), lmo2558_533-553 […] (SEQ ID NO: 14984), lmo2360_289-306 […] (SEQ ID NO: 15009), lmo0186_285-303 […] (SEQ ID NO: 15005), lmo0582a_26-46 […] (SEQ ID NO: 15012), lmo0582b_12-25 […] (SEQ ID NO: 15013). To calculate the frequency of CD4^+ cells in each splenocyte sample from infected mice, an aliquot of cells from each mouse was stained for flow cytometric analysis. 1×10^6 cells were incubated with 2.4G2 Mouse Fc block in PBS/FBS (BD Pharmingen, 553142) for 20 min at 4° C. […] Fluorescently labeled cells were acquired on the FACSVerse flow cytometer (BD Biosciences) and analyzed using FlowJo Analysis Software (Tree Star).

[2] = system: ovarian carcinoma patients; conditions: poly-ICLC in combination with a NY-ESO-1 peptide vaccine (in addition to Montanide), phase 1; cited from earlier work

In the case of “14980 (WNEKYAQAYPNVS; Listeria sp) [compound 14980]”, the “logFC (Log2 Fold Change Listeria 6 hr versus 10 min)” value [1] is reported as 1.377.

In the case of “14981 (WNEKYAQAYPNVSAKI; Listeria sp) [compound 14981]”, the “logFC (Log2 Fold Change Listeria 6 hr versus 10 min)” value [1] is reported as 1.202.

In the case of “14982 (VERWNEKYAQAYPNVS; Listeria sp) [compound 14982]”, the “logFC (Log2 Fold Change Listeria 6 hr versus 10 min)” value [1] is reported as 0.2849.

With “14983 (ERWNEKYAQAYPNVS; Listeria sp) [compound 14983]” the “logFC (Log2 Fold Change Listeria 6 hr versus 10 min)” value [1] was 0.2069.

With “14985 (VWTKPNKIEGAQKISALSTY; Listeria sp) [compound 14985]” the “logFC (Log2 Fold Change Listeria 6 hr versus 10 min)” value [1] was -0.2625.

With “14995 (EVEDLNQPLAAHVNYE; Listeria sp) [compound 14995]” the “logFC (Log2 Fold Change Listeria 6 hr versus 10 min)” value [1] was 0.1526.

For “15016 (SNVNHVLDIGYGGGSNVKN; Listeria sp) [compound 15016]”, the “logFC (Log2 Fold Change Listeria 6 hr versus 10 min)” value [1] was 0.227.

For “15017 (EVVYHNMKQDLE; Listeria sp) [compound 15017]”, the “logFC (Log2 Fold Change Listeria 6 hr versus 10 min)” value [1] was -0.1708.

With “15018 (DGLKAGEHFFAAGKDWPDAIYANGDEVAAGVMYH; Listeria sp) [compound 15018]” the “logFC (Log2 Fold Change Listeria 6 hr versus 10 min)” value [1] was -0.4271.

With “15019 (EILLQKPNGERLTSFITL; Listeria sp) [compound 15019]” the “logFC (Log2 Fold Change Listeria 6 hr versus 10 min)” value [1] was -0.04842.

In the case of “15020 (GLLMAKKYKMNLTIVIVN; Listeria sp) [compound 15020]”, the “logFC (Log2 Fold Change Listeria 6 hr versus 10 min)” value [1] is reported as -0.6291.

With “15022 (MNRVMLPLQQMGAKMHGK; Listeria sp) [compound 15022]” the “logFC (Log2 Fold Change Listeria 6 hr versus 10 min)” value [1] was 0.1447.

With “15023 (VMASDYTRGLSIRAIELVFENL; Listeria sp) [compound 15023]” the “logFC (Log2 Fold Change Listeria 6 hr versus 10 min)” value [1] was 0.2507.

With “15024 (YMEKHSVSRLVGAPP; Listeria sp) [compound 15024]” the “logFC (Log2 Fold Change Listeria 6 hr versus 10 min)” value [1] was -0.4422.

In the case of “15025 (KTASGIVLPDSAKEKPQSGKIVAVGSGRVLD; Listeria sp) [compound 15025]”, the “logFC (Log2 Fold Change Listeria 6 hr versus 10 min)” value [1] is reported as -0.4963.

With “15026 (ESVYLSAQKENPRLFAKIETF; Listeria sp) [compound 15026]” the “logFC (Log2 Fold Change Listeria 6 hr versus 10 min)” value [1] was 0.5951.

In the case of “15027 (RDNYLFQLYEATGTPIHPMSPF; Listeria sp) [compound 15027]”, the “logFC (Log2 Fold Change Listeria 6 hr versus 10 min)” value [1] is reported as -0.05049.

For “15028 (ERWNEKYAQAYPNVSAKID; Listeria sp) [compound 15028]”, the “Peptidomics Hit” value [1] was “..........[…]”.

With “15029 (ETQHYYGLPVADSAIDRGPL; Listeria sp) [compound 15029]” the “Peptidomics Hit” value [1] was “...APGQETQHYYGLPVADSAIDR”.

For “15030 (FRYVFDTAKATAASSYPGS; Listeria sp) [compound 15030]”, the “Peptidomics Hit” value [1] was “......ADFRYVFDTAKATAASSYPG”.

For “15031 (DTTVKFTLPTVAPAFENTIKT; Listeria sp) [compound 15031]”, the “Peptidomics Hit” value [1] was “AVDDTTVKFTLPTVAPAFENT”.

In the case of “15032 (EKVVATPVSNVSTSSATSS; Listeria sp) [compound 15032]”, the “Peptidomics Hit” value [1] is reported as “GTKEKVVATPVSNVSTSSA”.

In the case of “15033 (INQAYTGSTALSDGLNKM; Listeria sp) [compound 15033]”, the “Peptidomics Hit” value [1] is reported as “GGINQAYTGSTALSDGLN”.

In the case of “15034 (GIAVTAFAAPTIASASTVVV; Listeria sp) [compound 15034]”, the “Peptidomics Hit” value [1] is reported as “IAVTAFAAPTIASA”.

For “15036 (TVRAKSKTYPVYINEFALED; Listeria sp) [compound 15036]”, the “Peptidomics Hit” value [1] was “TVRAKSKTYPVYInEFALE”.

For “ADFRYVFDTAKATAASSYPG (Listeria sp) [SEQ ID NO: 14986, Listeria peptide from lmo2185]”, the “T cell response (IFN-γ ELISPOT)” value (CD4 T cells) was “Robust responses”.

With “APGQETQHYYGLPVADSAIDR (Listeria sp) [SEQ ID NO: 14984, Listeria peptide from lmo2558 (ami)]” the “T cell response (IFN-γ ELISPOT)” value (CD4 T cells) was “Robust responses”.

In the case of “Polyinosinic-Polycytidylic Acid-poly-L-lysine Carboxymethylcellulose [poly-ICLC]”, the “patients showing induction of CD4+ and CD8+ T cell, as well as antibody responses to the peptide” value [2] is listed as over 90%.

For “VDDTTVKFTLPTVAPAFENT (Listeria sp) [SEQ ID NO: 14997, Listeria peptide from lmo0135]”, the “T cell response (IFN-γ ELISPOT)” value (CD4 T cells) was “Robust responses”.

With “WNEKYAQAYPNVSAKI (Listeria sp) [SEQ ID NO: 14981, Listeria peptide from lmo0202 (hly) (LLO)]” the “T cell response (IFN-γ ELISPOT)” value (CD4 T cells) was “Robust responses”.
